Measured values as given in the DeepSol protein solubility set.

Experiment: soluble on expression in E. coli; label from the status in PepcDB or PDB records

Row | Sequence | soluble on expression in E. coli
1 | MPISSSSARRAEPAPRPLAEFHPVVRQWFERHFAAPTPAQVEAWPAIREGLSTLVAAPTGSGKTLTAFLAAIDALVVEGLAAGGELADATQVVYVSPLKALSNDIRINLEQPLAGIREELARLGLPDVDIRSAVRTGDTPQVERGAMRKRPPHILVTTPESLYILLGSESGRQMLAGVRSVIVDEIHALAGSKRGSHLALSLERLQALCPRPLLRIGLSATQKPIEKVARFLVGASGNPRDPACRIVDVGYTRPRDLGIEVPPVALEAVMSNDTWELVYDRLAHLAGEHRTTLVFVNTRRMAERVTRFLAERLGSRQVAAHHGSLAKELRLDAEQRLKAGQLKVLVATASLELGIDIGDVELVCQLSSPRSIAAFLQRVGRSGHSVGGTPKGRLFPTSRDDLVECAALLDSVRRGELDSLVLPRQPLDVLAQQIVAEVACQEWREDDLYRLVIRAEPYAGLERERFDEVLRMLAEGYHSRLGVRGAYLHRDALNGLLRGRRGARLTALTSGGTIPDTGDYSVLLEPQGLLVGTVNEDFAVESLAGDVFQLGNTSYRIIRIEPGRVRVEDAQGQPPNIPFWLGEAPGRSDELSASVARLRDTLDELLGEGQALPEGRRLEPAIAWLGATLGLDDGAARQIVEYLARARQALGGLPGSRRLVLERFFDESGGMQLIIHSPHGSRLNRAWGLALRKRFCRSFNFELQAAATEDAIILSLSTSHSFPLDEVWRYLHSASAEHLLVQAVLDAPLFGVRWRWNLTTSLGLPRYAGGRKVPPQLLRMKSEDLLASVFPDQVACLENIVGEREVPDHPLVAQTLDDCLHEAMDCEGWLALLRDMESGAVDLLARDLPAPSALAAEILTARPYAYLDDAPLEERRTQAVQNRRWSDPESADDLGALDLEAIEAVRGEAWPEASNADEMHEALNSLGFLTSGEAEANPGWGEWLAQLSEQRRAGRLDCAGSTLWLAAERLPAMRLVHPAAKVPDAFQAPRGYPPPDSAEAATVELTRARLGGFGPRTAGQLAADLGIGLADQQYALAALEREGYVLRGRFSPGATEEEWCERHLLARIHRYTVKRLRREIEPVERADFMRFLFDWQRLAPGTRGRGAESLATVVEQLEGFQAAAAAWESELLAARVADYASHWLDQLCRSGRIVWARLAGRSKAAGGPLRSAPIVLLPRRELGLWSVLQRDAPEPELSPRAARVLEVLREQGASFFDELSQDAHLLRSELENALGELVSVGRVNADSFAGLRTLLMPADKRSRQERRSRGLPGGMQDAGRWAPLRRAKAEEAGQRLPAEVLEHVARTLLRRYGVVAWRLLEREADWLPPWRELLRVYHRLEARGEIRGGRFIAGLAGEQFALAEAVGLLREVRKRPPDGAMLVVSAVDPLNLVGGLLPGERVPAVTGNRLLYRDGAPLAALVAGKVRMLAEVDGETAQQIRALLI | not soluble
2 | MPITWMRMRPWLEMQINSNQIPGLIWINKEEMIFQIPWKHAAKHGWDINKDACLFRSWAIHTGRYKAGEKEPDPKTWKANFRCAMNSLPDIEEVKDQSRNKGSSAVRVYRMLP | soluble
3 | MPKRKTGYEEMLEDVIETLKQSPEEVNKALETSGKVVEAANDLTKDELALIAAYVKADLKEFSESYEDSKSGPFYLTVADSIWQGLLEITDRTKVEWVELFDDLEHQGLYEAGEVIGLGTLVCDECGHKTTYNHPIIIIPCIKCGHKGFSRQSLKP | not soluble
4 | MPKRSKEDTEITIQKIMDAVVDQLLRLGYDKMSYTTLSQQTGVSRTGISHHFPKKTDFTAALDGRIFKMFIEHLEFEKGLDAFSQSWIKALEDSEFLAILRLLFHHIVTSESAHEFAANGIDRLYKMVESQFGSGGDKELEWLIGRSLIQMSK | not soluble
5 | MPLALGGTPFEKHVWARLMEIPLGQTRAYGDLAREMERPEVVRAVGRANGANQLAIVVPCHRILGADGSLTGYGGGLWRKQWLLRHEEKIGTETRMEETALEHHHHHH | not soluble
6 | MPLNERQLDAFADEHAGQIPFDASPRHLAGPGDARHVTHGLAAAGWATISDPLSAEIVMASPDHRYRLQYDPQSATSAWWRLRATSADNEHGWYAEFGELVPAEVLSSLTDALIAPASPQSDPWQPVTSAGWRPDEAGAAHSPDAMCHIERRPTSEFHERPSWHIEVRDAHDTQYPGPRIWHAYLDEHAPDHLVGAFLSALTDQSPLQRGMFDRTAHYSAVKEPSPLRPQQVVDAHTSRVKVLRAQARAMRRQQTAPAKPPAPTTAVQPAARRLEHHHHHH | not soluble
7 | MPLNTDFFKPSKNKEKFVLVFLKRGYPSHVDLLTKIAEKVKMKSIGYKIPNAEYLERVSDEELRDLYSSALVTLYPIDFEYYGYIPVESMAAGTPVIAFRYSGGPAETIVDGETGWLASDEEEFYRLTIKVYNEGYPEDTSVKSRKRAEEFSIQN | soluble
8 | MPLTDTPPSVPQKPRRGRPRGAPDASLAHQSLIRAGLEHLTEKGYSSVGVDEILKAARVPKGSFYHYFRNKADFGLALIEAYDTYFARLLDQAFLDGSLAPLARLRLFTRMAEEGMARHGFRRGCLVGNLGQEMGALPDDFRAALIGVLETWQRRTAQLFREAQACGELSADHDPDALAEAFWIGWEGAILRAKLELRPDPLHSFTRTFGRHFVTRTQE | soluble
9 | MPMDSYEKRGYLDREFRLFHLSACLPGDISYHYHDFDKILIFLRGDVDYVIEGRSYHLNPYDIVLVGHHSIHKPLLRSGDVYERIVVYLSPGYVDSFRTENCDLSRCFKDAREHCSDVLRISSLKISSLYESLIRLEKACREDGYAKELYCRILFLEFMIHLNRAASGSHLEYVSTSPSSEKVLEIMRYISENPSADFTIDSLASRFFLSKFHMMRLFKQETGYTINSYINEKRLLMAKELLGRNLPVTEVCFRCGFRNYAAFLRAYKKNFGENPKSGKRPEGRTSVDNLHAPRTEHRLQKKPLSK | not soluble
10 | MPMYKLTPTFPPNFEVHPKIACYPVGSYHNPSFGGVGPSDAVQVESDPRKALEHKQLSLIEQLKAQTEELKKLLVSLGEAGKAERSAQKPAEKAPKEPEKSAGAASSAPGVPGAPAKLDKDAKKEARKAAKAEAVKKLASGEAPPQKSAKKTVNSTPWTVQDDRKTWETNLTLTVNLPTSLVAYEPQEQLKNATLTVRDVDLPWARALAKVGASRGVSFEGEVKNQTKEKKSSLKVVKGPAPSLQLEKTTVKSLQTIWKLLGSSLGLFSRRPQQVLSASHQAIWLGKAEQILAGSCDQSFVTREASQFLARFDSLSSQWEVCVADIVFRSLLNLGEHLPNNVELWAKKIDALIV | soluble
11 | MPNQNFNAQLAEAISALNTPNFTPKLMSVIHSIFDFDCAIILGYREGKHPIYLYDSIENERELLFQRYLTNSFQNDPFFQNLNQHKQQGIFTLKDVAKKGIEYQTYRKQFYDQTGWKDELSMLVEIESGRWVILYFGCLREGKRFSAAQINNLRSHFSVLQSLCQQHWKQAEFNLSEPVVRPDAYTGNMKVAIEQALSSFGIE | not soluble
12 | MPNYKLTYFNMRGRAEIIRYIFAYLDIQYEDHRIEQADWPEIKSTLPFGKIPILEVDGLTLHQSLAIARYLTKNTDLAGNTEMEQCHVDAIVDTLDDFMSCFPWAEKKQDVKEQMFNELLTYNAPHLMQDLDTYLGGREWLIGNSVTWADFYWEICSTTLLVFKPDLLDNHPRLVTLRKKVQAIPAVANWIKRRPQTKL | soluble
13 | MPPMAKNAAVTDVVHLDSDSDSDNGVVGGRESASTIAGAATMAPRETLECRSFWKAGDYFVIPNVVTPTAPAIAELLDNAVDEIQNGATFVKIDKINIVKDNSPALVFQDDGGGMDPAGLRKCMSLGYSSKKSNTTIGQYGNGFKTSTMRLGADAIVFSRSTRGGTSTQSVGILSYTFLRKTGQDDVTVPMIRYVMQIDIDISKERPQPIIYGSPEDWAANLEILLKWSPFSTEDELLQQSVLLIFLFPSSTHQFEDVGTHGTKVIIYNLWLNDEGIYELSFDDDEEVTHTFPQLIYTRRDILPEDIRLRDESVNDGKRLHHKILELRSHISYHLRYSLRAYASMLYLKKFKNFKIIIRGIPVEQFNIADGFRFPEIIKYKPHTATTEQASTEIKIGFVKEAPKLAICGFNVYHKNRLIRDTGNNLDGKSAGEIRQENLQLFMRYIYKKRKIRISISYLCGDLNQILFFNRCEEYIKKENETEQTVKSLEKELEEFKSKCAHLALLVDAKKKEMQQA | soluble
14 | MPPRFNIANVLLSPDGETFFRGFRSKIHAKGSLVCTGEGDENGVFVVVDGRLRVYLVGEEREISLFYLTSGDMFCMHSGCLVEATERTEVRFADIRTFEQKLQTCPSMAWGLIAILGRALTSCMRTIEDLMFHDIKQRIAGFFIDHANTTGRQTQGGVIVSVDFTVEEIANLIGSSRQTTSTALNSLIKEGYISRQGRGHYTIPNLVRLKAAADGDRDDDDD | soluble
15 | MPQDSSQGRPRGDDVWVAEAKYDCNTRGRNSIMGNGALKYRTESKNFFNLIPEEVFHNTMKYLDLFLRNLRNIII | not soluble
16 | MPQESSDAKRIEPPRKVDFMLKPRFTNTVPDVPFDAKFMTCPFVPLGRFVEFQPAAIYRDYKHAVICDDDMGLNVDLIDLKKYDEDPIETEIDEKDNILLEDDGAAKLIAKRSQQHSKLVPWMRKTEYISTEFNRFGVTADRQETKLGYNLKKNQQVEDMYRDKQSQIDAINKTFEDVRKPVKEHYSKKGVKAVEESFVFPDFDHWKHLFAHVQFDGDTITTEFEEEDERQQARESSVIKAMEFEDQKFAAVFVPTIGCLTSFMDDLELERPFDEDMKYEFLLSREYTFKMEHLPPRDRDVFIMYHRNNVFQYNEVDCNVKMTRKPKMALSRKSKLTLTYRNPSELEQKDMNKREAELYEQPKTRKQEILEKIQEKKEEGGDSSDQSSDSDDDKPQKSRSDSSSDVSSDDDSPRKKEPTVDSDSD | not soluble
17 | MPQLQKEWFDTWFDTPYYHILYSNRDESEAEVFLTNLMNHMAVPKGASILDLPCGKGRHTLFLAEKGYTLTGADLSVASIALAQSHAPAGVTFLVHDLRKPAWNESFDYVLNLFTSFGYFETEAEDRAAFTTLSKALKSGGSLVIDFMNVTRAVNLLKEEETKVMEGIEFQLKRYVKDGYIHKEIRFEADNTPFFFTERVKALTLDDFKEFFTFAGLTLVDTFGSYQLDAYDAAESDRLIMIAKKLEHHHHHH | soluble
18 | MPRASISDTIPMTMASIDAGSVRFTARADKRHLNPLGGVHGGFAATVLDSVTGCAIHSILEAGVGYGTVDLSVKRVKAVPEDTPLVAEGRVLHVPCAIGSQRADLMLAPPRLGRDRRCPAGLEHHHHHH | not soluble
19 | MPRFSNKTVIITGSSNGIGRTTAILFAQEGANVTITGRSSERLEETRQIILKSGVSEKQVNSVVADVTTEDGQDQIINSTLKQFGKIDVLVNNAGAAIPDAFGTTGTDQGIDIYHKTLKLNLQAVIEMTKKVKPHLVASKGEIVNVSSIVAGPQAQPDFLYYAIAKAALDQYTRSTAIDLAKFGIRVNSVSPGMVETGFTNAMGMPDQASQKFYNFMASHKECIPIGAAGKPEHIANIILFLADRNLSFYILGQSIVADGGTSLVMGTQAHDVMSIMSSH | soluble
20 | MPRGHAGDFPPPALSVRNRPGNSGLVLETCFAQLRSGRKDHGARVRNMTAPRSIVIGGGAFAGLALALALRQGLGPEVPVIVADPALALRPSRDPRATAIVAACRRLFEALGVWDEVAPTAQPIIDMVVTDSHLEDATRPVFLTFAGEVQPGEPFAHMVENRYLVEALAKRAEAEGVELRATPVTSYDARTEAIGVTLGDGSVIDASLLVAADGAKSKLRQRAGIATYGWDYDQSGIVVTVEHERDHNGCAEEHFLPAGPFAILPLTGRRSSLVWSESRRDAERIVALPEKEFQRELEKRFGLRLGDIKPLDKPKSFPLGYFVAQSFIAPRLALIGDAAHVIHPIAGQGLNMGLRDVAALAEVVVDAARLGIDPGQVDVLERYQRWRRFDTVAMGVATNGLNFLFSNNSPLLRGIRDIGLGLVDRLPPLKGAFIRQAAGLTGEIPRLLKGEALLEHHHHHH | soluble
